Measured values: patent publication US11833164B2, “Methods of treating Fabry disease in patients having a mutation in the GLA gene” (Amicus Therapeutics, Inc., priority 2019, dated 2023)
Positions count from the first letter of the chain named. Names and notes keep the numbering of the source.

B1: R105I (protein)
chain: MQLRNPELHLGCALALRFLALVSWDIPGARALDNGLARTPTMGWLHWERFMCNLDCQEEPDSCISEKLFMEMAELMVSEGWKDAGYEYLCIDDCWMAPQRDSEGILQADPQRFPHGIRQLANYVHSKGLKLGIYADVGNKTCAGFPGSFGYYDIDAQTFADWGVDLLKFDGCYCDSLENLADGYKHMSLALNRTGRSIVYSCEWPLYMWPFQKPNYTEIRQYCNHWRNFADIDDSWKSIKSILDWTSFNQERIVDVAGPGGWNDPDMLVIGNFGLSWNQQVTQMALWAIMAAPLFMSNDLRHISPQAKALLQDKDVIAINQDPLGKQGYQLRQGDNFEVWERPLSGLAWAVAMINRQEIGGPRSYTIAVASLGKGVACNPACFITQLLPVKRKLGFYEWTSRLRSHINPTGTVLLQLENTMQMSLKDLL
B2: L106H (protein)
chain: B1 chain with I105R, L106H
B3: Q107K (protein)
chain: B1 chain with I105R, Q107K
B4: D109A (protein)
chain: B1 chain with I105R, D109A
B5: D109N (protein)
chain: B1 chain with I105R, D109N
B6: L106V (protein)
chain: B1 chain with I105R, L106V
B7: D109Y (protein)
chain: B1 chain with I105R, D109Y
B8: D109E (protein)
chain: B1 chain with I105R, D109E
B9: D109H (protein)
chain: B1 chain with I105R, D109H
B10: A108V (protein)
chain: B1 chain with I105R, A108V
B11: R105T (protein)
chain: B1 chain with I105T
B12: L106I (protein)
chain: B1 chain with I105R, L106I
B13: R105K (protein)
chain: B1 chain with I105K
B14: P110T (protein)
chain: B1 chain with I105R, P110T
B15: A108E (protein)
chain: B1 chain with I105R, A108E
B16: Q107E (protein)
chain: B1 chain with I105R, Q107E
B17: Q107H (protein)
chain: B1 chain with I105R, Q107H
B18: L106P (protein)
chain: B1 chain with I105R, L106P

Each molecule was assayed on mutant form of α-Gal A expressed in HEK-293 cells (assay: HEK assay (GLP HEK / Migalastat Amenability Assay): α-Gal A activity in lysates of transiently transfected HEK-293 cells incubated with or without 10 μM migalastat). Conditions: 10 μM migalastat versus baseline.
Assay type: cell-based, human
Protocol: Such mutations or variants are also referred to herein as “HEK assay amenable” mutations or variants.
The α-Gal A activity is expressed as the nmoles of free 4-MU released per milligram of protein per hour (nmol/mg/hr).
In Table 7, values for the mean±standard error of the mean (SEM) were calculated. nmol/mg/hr indicates “nmoles of free 4-MU released per mg of protein per hour”. WT indicates “wild-type”. NC indicates “not calculable”. N/A indicates “not applicable”.

Molecule	Absolute increase (% WT)
B1	8.2
B2	7.3
B3	16.4
B4	20.4
B5	36.5
B6	19.8
B7	7.5
B8	9.3
B9	30.0
B10	34.4
B11	15.6
B12	23.6
B13	20.5
B14	18.6
B15	14.2
B16	10.4
B17	9.1
B18	25.8

Same assay, conditions: 10 μM migalastat α-Gal A activity relative to baseline

Molecule	Relative increase
B1	1.3
B2	3.5
B3	1.4
B4	2.2
B5	8.4
B6	1.4
B7	11.9
B8	1.2
B9	2.2
B10	3.5
B11	1.4
B12	1.5
B13	1.2
B14	1.3
B15	1.4
B16	1.2
B17	1.2
B18	1.8

Same assay, conditions: 10 μM migalastat, 5 days; percentage of baseline wild-type α-Gal A activity; mean ± SEM

Molecule	10 μM migalastat α-Gal A activity (% WT)
B1	41.6 ± 3.1
B2	10.2 ± 1.1
B3	54.6 ± 4.8
B4	38 ± 3.7
B5	41.5 ± 2.8
B6	73.4 ± 5.9
B7	8.2 ± 1.1
B8	50.6 ± 3.6
B9	54.6 ± 3.5
B10	47.7 ± 4.6
B11	59.6 ± 3.9
B12	70 ± 4.7
B13	96.7 ± 5.2
B14	81.2 ± 6.5
B15	52.6 ± 4.6
B16	56.2 ± 3.3
B17	50.8 ± 2
B18	56.5 ± 3.9

Same assay, conditions: absence of migalastat; percentage of baseline wild-type α-Gal A activity; mean ± SEM

Molecule	Baseline α-Gal A activity (% WT)
B1	33.4 ± 2.2
B2	3 ± 0.2
B3	38.2 ± 3.9
B4	17.5 ± 2.2
B5	5 ± 0.3
B6	53.6 ± 4.3
B7	0.7 ± 0.1
B8	41.3 ± 3.4
B9	24.6 ± 1.7
B10	13.3 ± 1.7
B11	44 ± 2.2
B12	46.4 ± 2.7
B13	76.2 ± 2.9
B14	62.6 ± 5.9
B15	38.4 ± 2.6
B16	45.7 ± 3.1
B17	41.7 ± 1.5
B18	30.7 ± 2.7

Same assay, conditions: lysates of HEK-293 cells transfected with the mutant form, incubated 5 days in the absence of migalastat; mean ± SEM

Molecule	Baseline α-Gal A activity [nmol/mg/h]
B1	9696 ± 798
B2	856 ± 58
B3	14579 ± 2689
B4	6345 ± 1034
B5	1475 ± 83
B6	15393 ± 1288
B7	212 ± 30
B8	13839 ± 1179
B9	7540 ± 684
B10	4914 ± 799
B11	12553 ± 603
B12	13485 ± 1014
B13	25495 ± 1793
B14	20474 ± 1528
B15	11629 ± 835
B16	13148 ± 985
B17	12307 ± 487
B18	8835 ± 878

Same assay, conditions: lysates of HEK-293 cells transfected with the mutant form, incubated 5 days with 10 μM migalastat; mean ± SEM

Molecule	10 μM migalastat α-Gal A activity [nmol/mg/h]
B1	12128 ± 1157
B2	3009 ± 399
B3	20402 ± 3399
B4	13742 ± 1780
B5	12358 ± 973
B6	20991 ± 1611
B7	2530 ± 415
B8	16926 ± 1156
B9	16483 ± 1317
B10	17249 ± 2284
B11	17062 ± 1134
B12	20120 ± 1416
B13	31647 ± 2251
B14	26745 ± 1678
B15	15648 ± 1305
B16	16149 ± 1059
B17	14822 ± 384
B18	16075 ± 1039
